Carnitine transporting activity data for two molecules are collected here from patent publication US6790831B2, “Systemic carnitine deficiency gene and use thereof” (Chugai Seiyaku Kabushiki Kaisha, priority 1998, dated 2004).

Residue numbers refer to the chain shown, from its start. Entries after “also recorded” stand apart in the source; their conditions may differ.

The experiment deals with HEK293 cells. Put plainly: carnitine transporting activity assay of mouse OCTN2 expressed from plasmid DNA in HEK293 cells. Type of experiment: cell-based. The settings on record: plasmid DNA expressing the protein introduced into HEK293 cells; Mock = cDNA-non-containing vector; FIG. 3. As for the experimental part: Another embodiment of the therapeutic drug for systemic carnitine deficiency uses a compound that enhances the activity of the OCTN2 protein as the active ingredient. Such a compound can be screened as follows. For example, a plasmid expressing the OCTN2 protein is constructed, and this is introduced into HEK293 cells by the calcium phosphate method. Radiolabeled carnitine and a test compound are added to this transformant and the carnitine transporting activity into the cells is determined. A compound that can enhance the carnitine transporting activity is selected by comparing with the activity of the OCTN2 protein in the absence of the test compound. See Japanese Patent Application Hei 9-260972 and Hei 10-156660 for the detailed method.
Next, the effect this mutation has on the carnitine transporting activity was examined. Plasmid DNA expressing wild-type mouse OCTN2, and those expressing mutated OCTN2 were separately introduced into HEK293 cells, and then, carnitine transporting ability was measured similar to the assay of human OCTN2 described in Japanese Patent Application Hei 10-156660 (FIG. 3). […] However, both proteins were confirmed to be expressed at a similar amount by a western blotting using an antibody against the c-myc epitope sequence (NH2—EQKLISEEDL—COOH; SEQ ID NO:26) added to the C terminus (FIG. 4).

B1: wild-type mouse OCTN2: mouse OCTN2 protein, amino acid sequence SEQ ID NO:3, sodium-ion dependent carnitine transporter (protein)
chain: MRDYDEVTAFLGEWGPFQRLIFFLLSASIIPNGFNGMSIVFLAGTPEHRCLVPHTVNLSSAWRNHSIPLETKDGRQVPQKCRRYRLATIANFSELGLEPGRDVDLEQLEQESCLDGWEYDKDVFLSTIVTEWDLVCKDDWKAPLTTSLFFVGVLMGSFISGQLSDRFGRKNVLFLTMGMQTGFSFLQVFSVNFEMFTVLFVLVGMGQISNYVAAFVLGTEILSKSIRIIFATLGVCIFYAFGFMVLPLFAYFIRDWRMLLLALTVPGVLCGALWWFIPESPRWLISQGRIKEAEVIIRKAAKINGIVAPSTIFDPSELQDLNSTKPQLHHIYDLIRTRNIRVITIMSIILWLTISVGYFGLSLDTPNLHGDIYVNCFLLAAVEVPAYVLAWLLLQYLPRRYSISAALFLGGSVLLFMQLVPSELFYLSTALVMVGKFGITSAYSMVYVYTAELYPTVVRNMGVGVSSTASRLGSILSPYFVYLGAYDRFLPYILMGSLTILTAILTLFFPESFGVPLPDTIDQMLRVKGIKQWQIQSQTRMQKDGEESPTVLKSTAF
Turning to B1, the carnitine transporting activity entry is “sodium-dependent carnitine transporting activity is seen; also recorded: shows a carnitine transporting activity similar to human OCTN2”.

B2: mutated OCTN2: jvs mouse OCTN2 in which the 352nd leucine (CTG) is mutated to arginine (CGG) (protein, UniProt Q9Z0E8 1-557, looked up, variant L352R)
chain: B1 chain with L352R
modifications: full-length
With B2, the carnitine transporting activity result is “absolutely no activity”.
